Assay results: paper PMC3753320
pKd: −log10 of the molar value. Where two headings read alike, the source gives them in different places.

What was measured:
rhBMP-2 (Homo sapiens) [1] = target: rhBMP-2 (Homo sapiens) (UniProt P12643); details: cited from earlier work
[2] = target: Recombinant human transforming growth factor-β1 (TGF-β1) (human) (UniProt P01137); assay: SPR; Biacore T-100, CM5 chip, amine coupling, HBS-EP running buffer; TGF-β immobilised as ligand, Spp24 proteins as analytes; five concentrations of each analyte; kinetic constants by the manufacturer's software
Sequence of Recombinant human transforming growth factor-β1 (TGF-β1) (human) (P01137 279-390): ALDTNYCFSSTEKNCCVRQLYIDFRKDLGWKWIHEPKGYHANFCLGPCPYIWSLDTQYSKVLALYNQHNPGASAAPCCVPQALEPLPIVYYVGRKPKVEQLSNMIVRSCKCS

rhBMP-2 (Homo sapiens) [3] = target: rhBMP-2 (Homo sapiens) (UniProt P12643); details: cited from earlier work; remark: listed apart in the source
TGF-β1 (Homo sapiens) = TGF-β1 (Homo sapiens) (UniProt P01137); details: cited from earlier work
Sequence of TGF-β1 (Homo sapiens) (P01137 279-390): as above

rhBMP-2 (Homo sapiens) [4] = target: rhBMP-2 (Homo sapiens) (UniProt P12643); assay: SPR; details: cited from earlier work
[5] = target: rhOP-1 (BMP-7) (Homo sapiens) (UniProt P18075); assay: SPR; details: cited from earlier work
Sequence of rhOP-1 (BMP-7) (Homo sapiens) (P18075 293-431): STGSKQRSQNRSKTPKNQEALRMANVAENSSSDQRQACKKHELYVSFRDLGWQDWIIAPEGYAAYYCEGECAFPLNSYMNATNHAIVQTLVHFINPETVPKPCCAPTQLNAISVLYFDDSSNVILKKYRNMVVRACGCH

rhTGF-β (Homo sapiens) = rhTGF-β (Homo sapiens) (UniProt P01137); assay: SPR; details: cited from earlier work
Sequence of rhTGF-β (Homo sapiens) (P01137 279-390): as the sequence (P01137 279-390) above

Sequence of Spp16.0, C-terminal truncation product of Spp24 (domain or fragment) (Q27967 24-203): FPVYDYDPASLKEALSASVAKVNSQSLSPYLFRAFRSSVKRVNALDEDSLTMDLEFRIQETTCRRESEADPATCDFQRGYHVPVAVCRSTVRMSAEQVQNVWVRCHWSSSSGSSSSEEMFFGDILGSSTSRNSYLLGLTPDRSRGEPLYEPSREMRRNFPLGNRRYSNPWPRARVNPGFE
Sequence of Spp14.5, C-terminal truncation product of Spp24 (domain or fragment) (Q27967 24-203): as above
Sequence of Spp18.1, C-terminal truncation product of Spp24 (domain or fragment) (Q27967 24-203): as above
Sequence of rhBMP-2 (Homo sapiens) (P12643 283-396): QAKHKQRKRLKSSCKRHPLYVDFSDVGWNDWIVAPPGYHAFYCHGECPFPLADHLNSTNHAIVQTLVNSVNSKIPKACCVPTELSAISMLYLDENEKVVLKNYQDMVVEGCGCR
Sequence of fetuin TRH1 peptide (P12763 114-133): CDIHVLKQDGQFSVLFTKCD

Question: With Spp24 TRH1 peptide (BBP) as the substance, how does the pKd (rhBMP-2 (Homo sapiens) [1]) read?
Answer: 4.52

Question: What does the source list for “Spp14.5, C-terminal truncation product of Spp24 (domain or fragment)”?
Answer: pKd [2]: 5.85; koff [2]: 0.00589 s⁻¹; kon [2]: 4180 M⁻¹ s⁻¹

Question: With “Spp16.0, C-terminal truncation product of Spp24 (domain or fragment)” as the substance, how does the pKd [2] read?
Answer: 5.49

Question: And the koff [2]?
Answer: 0.0122 s⁻¹

Question: And the kon [2]?
Answer: 5550 M⁻¹ s⁻¹

Question: With fetuin TRH1 peptide as the substance, how does the pKd (rhBMP-2 (Homo sapiens) [3]) read?
Answer: 5.62

Question: What about the pKd (TGF-β1 (Homo sapiens)) of the same substance?
Answer: < 5.00

Question: With “BMP Binding Peptide (BBP) TRH1 domain (from UniProt Q27967)” as the substance, how does the pKd (rhBMP-2 (Homo sapiens) [4]) read?
Answer: 7.27

Question: And the pKd [5]?
Answer: 7.94

Question: And the pKd (rhTGF-β (Homo sapiens))?
Answer: 7.17

Question: Which results are given for “Spp18.1, C-terminal truncation product of Spp24 (domain or fragment)”?
Answer: pKd [2]: 5.86; koff [2]: 0.0106 s⁻¹; kon [2]: 10000 M⁻¹ s⁻¹
